# According to the Immune Epitope Database (IEDB):
# pKd: −log10 of the molar value.
# Key:
# [1] = target: HLA-A*02:02; experiment: IEDB peptide-MHC binding, purified MHC/competitive/radioactivity; filed as Kd, often an IC50 or EC50 that approximates it; ≥ and ≤ were set here for values at or beyond the usual limits of such assays
# [2] = target: HLA-A*02:06; experiment: as above
# [3] = target: HLA-A*02:03; experiment: as above
# [4] = target: HLA-B*53:01; experiment: as above
# [5] = target: HLA-B*51:01; experiment: as above
# [6] = target: HLA-A*30:02; experiment: as above
# [7] = target: HLA-B*07:02; experiment: IEDB peptide-MHC binding, purified MHC/direct/fluorescence; filed as Kd, often an IC50 or EC50 that approximates it; ≥ and ≤ were set here for values at or beyond the usual limits of such assays
# [8] = target: HLA-A*02:01; experiment: as above
# [9] = target: HLA-A*69:01; experiment: as above
# [10] = target: HLA-B*15:01; experiment: as above; conditions: source organism: Yellow fever virus 17D
# [11] = target: HLA-A*11:01; experiment: as above
# [12] = target: HLA-A*02:01; experiment: IEDB peptide-MHC binding, purified MHC/competitive/fluorescence; filed as Kd, often an IC50 or EC50 that approximates it; ≥ and ≤ were set here for values at or beyond the usual limits of such assays; conditions: source organism: Vaccinia virus WR
# [13] = target: HLA-B*58:01; experiment: IEDB peptide-MHC binding, purified MHC/direct/fluorescence; filed as Kd, often an IC50 or EC50 that approximates it; ≥ and ≤ were set here for values at or beyond the usual limits of such assays; conditions: source organism: Homo sapiens
# [14] = source organism: Vaccinia virus WR
# [15] = source organism: Dengue virus 3 Singapore/8120/1995
# [16] = source organism: Dengue virus 3 Martinique/1243/1999
# [17] = source organism: Dengue virus 1 Brazil/97-11/1997
# [18] = source organism: Dengue virus 2 Jamaica/1409/1983
# [19] = source organism: SARS coronavirus Tor2
# [20] = source organism: Dengue virus 4 Philippines/H241/1956
# [21] = source organism: Cryptosporidium hominis
# [22] = source organism: Cryptosporidium parvum
# [23] = source organism: Mammarenavirus juninense
Sequence,"pKd [1, 14]","pKd [2, 14]","pKd [3, 14]",other results
LVIRNEVNDT,5.26,5.66,4.82,
MAFDISVNA,6.72,7.88,7.82,
MLKLFTHDIM,7.07,≤ 4.69,7.03,
MPGTRKVMEI,,,,"pKd [4, 15]: 7.12; pKd [5, 15]: 5.96"
MVEYLENQL,6.46,5.40,5.19,
NIKISLNEIL,6.15,6.25,5.86,
NQGNILMDSI,5.41,5.51,5.39,
NTIDKSSPL,7.08,7.73,7.57,
PLHIVCSKT,6.00,5.41,5.67,
PLKDVERLQM,5.21,≤ 4.43,≤ 4.36,
PPFGESNIV,,,,"pKd [5, 16]: 5.75"
PPTAGILARW,,,,"pKd [4, 17]: 4.99"
PPTAGILKRW,,,,"pKd [4, 18]: 5.49"
PTSETMYLT,4.98,≤ 4.11,5.44,
QAKKPEVRI,6.13,≤ 4.38,5.18,
QLMCQPILLL,,,,"pKd [1, 19]: 7.03; pKd [2, 19]: 6.49; pKd [3, 19]: 6.66"
QNKEGDQYIY,,,,pKd ([6]; source organism: Dengue virus 1 Nauru/West Pac/1974): 5.87
RFLGEDGCWY,,,,"pKd [6, 20]: 7.58"
RNQNKEGDQY,,,,"pKd [6, 17]: 6.92"
RRRPVTRPL,,,,pKd ([7]; source organism: Candidatus Solibacter): 8.47
SALMTLDDL,6.39,7.00,6.15,
SGFGGETPV,,,,"pKd [8, 21]: 6.06; pKd [9, 21]: 4.87"
STKNILVTV,,,,"pKd [8, 22]: 6.38; pKd [9, 22]: 7.22"
SVKEDLVAY,,,,pKd [10]: 7.02
TIDAINKCV,7.05,6.39,6.20,

Sequence,"pKd [1, 14]","pKd [2, 14]","pKd [3, 14]",other results
TKLEGKIVQY,,,,"pKd [6, 17]: 5.15"
TLFGRGVIDT,6.70,5.48,7.02,
TPEGEVGAI,,,,"pKd [4, 17]: ≤ 4.40"
TSLGLLYTV,,,,"pKd [1, 23]: 6.03; pKd [2, 23]: 8.38; pKd [3, 23]: 6.39"
TTELNIVDEI,≤ 4.41,≤ 4.67,≤ 4.15,
VAWRTATLI,,,,"pKd [5, 16]: 6.86"
VHQVFGTAY,,,,"pKd [6, 17]: 6.22"
VIVVPVIDRL,5.34,4.95,≤ 4.23,
VLSLIGLKR,,,,pKd ([11]; source organism: West Nile virus): ≤ 4.70
VMFNGVTFST,,,,"pKd [1, 19]: 9.16; pKd [2, 19]: 6.88; pKd [3, 19]: 7.12"
VMGITAEWLW,,,,"pKd [4, 16]: 7.40"
VPGLPGTVL,,,,pKd ([11]; source organism: SARS-CoV1): 5.34; pKd ([7]; source organism: SARS-CoV1): 7.04
VPLAGPMVA,,,,"pKd [5, 20]: 4.77"
VQLPKRGVRV,≤ 4.47,7.38,5.66,
WAYHGSYEV,,,,"pKd [2, 17]: 7.61; pKd [5, 17]: 7.95"
WLGAAITLVV,7.71,5.74,7.11,
YALCTLLHL,,,,"pKd [1, 19]: 5.88; pKd [2, 19]: 8.82; pKd [3, 19]: 6.11"
YAQIQPHWI,,,,"pKd [5, 18]: 5.97"
YIILFILFFA,6.58,5.98,6.17,
YIKDLKHAT,4.73,≤ 4.40,≤ 4.11,
YLIHDNIMYT,,,,pKd [12]: 8.85
YLSKEDRIIT,5.89,≤ 4.31,5.25,
YPAEITLTW,,,,pKd [13]: 7.26; pKd ([7]; source organism: Homo sapiens): 6.83
YTTMFGGVSW,,,,"pKd [4, 20]: 6.92"
YVHSLLYSSM,5.66,5.65,5.17,
